Assay results published in IntAct's records for PubMed 20972448.

Molecular target: xpo1_mouse Xpo1 (UniProt Q6P5F9)
UniProt Q6P5F9, sequence (Q6P5F9 whole entry): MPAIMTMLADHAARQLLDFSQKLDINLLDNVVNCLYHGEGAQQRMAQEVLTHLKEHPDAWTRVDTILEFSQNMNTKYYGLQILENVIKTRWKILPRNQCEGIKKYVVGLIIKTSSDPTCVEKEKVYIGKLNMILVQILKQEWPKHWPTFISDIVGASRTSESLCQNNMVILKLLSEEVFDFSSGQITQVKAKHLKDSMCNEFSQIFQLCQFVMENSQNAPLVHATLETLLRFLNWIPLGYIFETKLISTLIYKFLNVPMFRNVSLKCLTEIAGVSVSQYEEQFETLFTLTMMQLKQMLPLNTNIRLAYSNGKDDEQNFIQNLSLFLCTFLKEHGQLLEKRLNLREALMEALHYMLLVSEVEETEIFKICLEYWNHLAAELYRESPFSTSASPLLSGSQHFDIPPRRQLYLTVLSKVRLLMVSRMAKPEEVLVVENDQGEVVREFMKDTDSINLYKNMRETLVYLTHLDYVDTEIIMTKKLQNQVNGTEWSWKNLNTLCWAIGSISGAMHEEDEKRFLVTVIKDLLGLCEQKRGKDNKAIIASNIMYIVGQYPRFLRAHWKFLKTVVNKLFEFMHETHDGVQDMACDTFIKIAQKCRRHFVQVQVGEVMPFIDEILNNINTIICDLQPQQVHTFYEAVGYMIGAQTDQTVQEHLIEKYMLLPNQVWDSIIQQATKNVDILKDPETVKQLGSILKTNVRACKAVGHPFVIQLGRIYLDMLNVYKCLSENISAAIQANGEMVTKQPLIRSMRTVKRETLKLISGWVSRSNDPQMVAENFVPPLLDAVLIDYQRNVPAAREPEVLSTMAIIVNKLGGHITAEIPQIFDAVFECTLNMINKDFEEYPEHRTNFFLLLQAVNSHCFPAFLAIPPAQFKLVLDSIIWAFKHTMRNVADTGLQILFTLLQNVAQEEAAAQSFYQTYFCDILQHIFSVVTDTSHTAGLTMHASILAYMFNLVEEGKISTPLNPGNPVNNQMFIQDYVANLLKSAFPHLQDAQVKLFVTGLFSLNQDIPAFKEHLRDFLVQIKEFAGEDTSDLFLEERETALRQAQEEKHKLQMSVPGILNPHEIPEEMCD

effect of a mutation on the interaction: increasing interaction
Substance: cAMP-dependent protein kinase inhibitor alpha (Homo sapiens) (from UniProt P61925) S35L
